Measured values: the DeepSol protein solubility set

Assay: soluble on expression in E. coli; label from the status in PepcDB or PDB records

| Sequence | soluble on expression in E. coli |
| --- | --- |
| MSSRKELANAIRALSMDAVQKAKSGHPGAPMGMADIAEVLWRDFLKHNPQNPSWADRDRFVLSNGHGSMLIYSLLHLTGYDLPMEELKNFRQLHSKTPGHPEVGYTAGVETTTGPLGQGIANAVGMAIAEKTLAAQFNRPGHDIVDHYTYAFMGDGCMMEGISHEVCSLAGTLKLGKLIAFYDDNGISIDGHVEGWFTDDTAMRFEAYGWHVIRDIDGHDAASIKRAVEEARAVTDKPSLLMCKTIIGFGSPNKAGTHDSHGAPLGDAEIALTREQLGWKYAPFEIPSEIYAQWDAKEAGQAKESAWNEKFAAYAKAYPQEAAEFTRRMKGEMPSDFDAKAKEFIAKLQANPAKIASRKASQNAIEAFGPLLPEFLGGSADLAPSNLTLWSGSKAINEDAAGNYIHYGVREFGMTAIANGISLHGGFLPYTSTFLMFVEYARNAVRMAALMKQRQVMVYTHDSIGLGEDGPTHQPVEQVASLRVTPNMSTWRPCDQVESAVAWKYGVERQDGPTALILSRQNLAQQERTEEQLANIARGGYVLKDCAGQPELIFIATGSEVELAVAAYEKLTAEGVKARVVSMPSTDAFDKQDAAYRESVLPKAVTARVAVEAGIADYWYKYVGLNGAIVGMTTFGESAPAELLFEEFGFTVDNVVAKAKELLHHHHHH | soluble |
| MLITVYCVRRDLSEVTFSLQVSPDFELRNFKVLCEAESRVPVEEIQIIHMERLLIEDHCSLGSYGLKDGDIVVLLQKDNVGPRAPGRAPNQPRVDFSGIAVPGTSSSRPQHPGQQQQRTPAAQRSQGLASGEKVAGLQGLGGPALIRSMLLSNPHDLSLLKERNPPLAEALLSGSLETFSQVLMEQQREKALREQERLRLYTADPLDREAQAKIEEEIRQQNIEENMNIAIEEAPESFEQVTMLYINCKVNGHPLKAFVDSGAQMTIMSQACAERCNIMRLVDRRWAGVAKGVGTQRIIGRVHLAQIQIEGDFLQCSFSILEDQPMDMLLGLDMLRRHQCSIDLKKNVLVIGTTGTQTYFLPEGELPLCSRMVSGQDESSDKEITHSVMDSGRKEH | soluble |
| MLSEVEFVEFQKENFSLLIDARSPREFLHSHLIGALNFYALNDEEYQEIGTIYKKNQALAKAMGASYICQNTTKHILEITQNFRIGEKVGIYCSRGGLRSKSIAVILSELGFRVVRLKGGFKAYRTFVTHYFENEINFDFFALCGNTGCGKTELLEQLPQAINLEKMANHLGSSFGDILGKQPTQKAFEAELFHNIQNLENFAFIESESRKIGDIILPLKFYEKMQKAFKIYCFCSLENRVRRIQKIYQEKMTPLKFQQCVQKISPYISLNLRQDLLQSYERKEWQKLIVMLLEYYDKTYKKPDKIDLELNTDDILKAKEELLDHFKVQLLF | not soluble |
| MQIWHMEPFPCGDRRLPHHVFPPKKITTTQLGQLAGVQYYKVDLDDTASMKKRLSAVKTEKNVTFTDMFTVSETMLEFDDKMEQFYEPQVQKEDVISLVVEGTCYYDVEPEDDSWIRVQVEKGDLIVIPKGLSHRFTTTPQNFVKIQRFFSRKVEGNQG | not soluble |
| MELWGRMLWALLSGPGRRGSTRGWAFSSWQPQPPLAGLSSAIELVSHWTGVFEKRGIPEARESSEYIVAHVLGAKTFQSLRPALWTQPLTSQQLQCIRELSSRRLQRMPVQYILGEWDFQGLSLRMVPPVFIPRPETEELVEWVLEEVAQRSHAVGSPGSPLILEVGCGSGAISLSLLSQLPQSRVIAVDKREAAISLTHENAQRLRLQDRIWIIHLDMTSERSWTHLPWGPMDLIVSNPPYVFHQDMEQLAPEIRSYEDPAALDGGEEGMDIITHILALAPRLLKDSGSIFLEVDPRHPELVSSWLQSRPDLYLNLVAVRRDFCGRPRFLHIRRSGP | soluble |
| TMEEELEPVVRHLVEQRWPFRLHATYNESITRMLDVFEKVNRDIPFNGLPWFFDHAETITPQNIERVRALGGGIAIQDRMAFQGEYFVDRYGAKAAEQTPPIKRMLEMGVPVGAGTDATRVSSYNPWTSLYWLVSGKTVGGMELYPEGLSRDTALQLFTQGSAWFSSEQGKKGQIKVGQLADLAALSLDFFSVDEEAIKGIESVLTIVDGKVVYGAGEFDKFGPPQVPVLPEWSPVTKVPGHWRVGTPSLAAAVHQCSGPCGVHAHSHEKARHSSVPVNDFQGFWGALGCSCFA | not soluble |
| MSLSSFPDVPGWVKPSVDYLINKNVLSGMPDGTFSPNLEIDRGSSAKVMAKILELPIDQSAKPSFDDSKSHWAAPYIAAIEKAGVIKGDGKGNFNPTGKLTRGAMASMLVHAYKLQEKVTGNPPTVFNDLKDHWSEKYVNILVELGISNGYGDDNWKPDQTITRAETVSLVARTDEGHHHHHH | not soluble |
| VVTRIVILGGGPAGYEAALVAATSHPETTQVTVIDCDGIGGAAVLDDCVPSKTFIASTGLRTELRRAPHLGFHIDFDDAKISLPQIHARVKTLAAAQSADITAQLLSMGVQVIAGRGELIDSTPGLARHRIKATAADGSTSEHEADVVLVATGASPRILPSAQPDGERILTWRQLYDLDALPDHLIVVGSGVTGAEFVDAYTELGVPVTVVASQDHVLPYEDADAALVLEESFAERGVRLFKNARAASVTRTGAGVLVTMTDGRTVEGSHALMTIGSVPNTSGLGLERVGIQLGRGNYLTVDRVSRTLATGIYAAGDCTGLLPLASVAAMQGRIAMYHALGEGVSPIRLRTVAATVFTRPEIAAVGVPQSVIDAGSVAARTIMLPLRTNARAKMSEMRHGFVKIFCRRSTGVVIGGVVVAPIASELILPIAVAVQNRITVNELAQTLAVYPSLSGSITEAARRLMAHDDLDCTAAQDAAEQLALVPHHLPTSN | soluble |
| MEINEKLLRQIIEDVLSEMKGSDKPVSFNAPAASAAPQATPPAGDGFLTEVGEARQGTQQDEVIIAVGPAFGLAQTVNIVGIPHKSILREVIAGIEEEGIKARVIRCFKSSDVAFVAVEGNRLSGSGISIGIQSKGTTVIHQQGLPPLSNLELFPQAPLLTLETYRQIGKNAARYAKRESPQPVPTLNDQMARPKYQAKSAILHIKETKYVVTGKNPQELRVAL | soluble |
| MDSENSSSHSISSPQMFQNTHNNSAMEDNLLSRPMNNESLQMIIGYLRRNGLTETEELLTREAGPVLRVEGSNGLPPEEAISVEFDTFVQHANDCTDVVQAEFSQLLFPIFAHSYIALIEKHAATARIFFNRFKIFIPECFSEFVYQLSLIEDAMTLRANEHVHILRENKFLVRLSRPTLKHLESIQTRVIGVKNIIAKHICIENADEVSTNRTTIETQMGGILGVTSKSDKRHKMMFSVLKDELMQNIEKRKTKGKDWKDMGKKMQTHCPQADRIPLPPISEHLREERRNWLRDVGKMAIISAESPVSICMYTTVNAPIGVASCDFTDDSSLIAMGLSDSSIVMNAMDPMNKMKKLRDMEFLDKIDIETADNVQSQMFDLQGSTTSVRYTGHGGPVFSVNFSPDRRLLISSAGDRTVRLWSMETQRNAVIYRTPAVAQFCSRGYYFATASADKTAAMWSTDRMHPLRIFADPYGDVGCIDYHPNCNYIAGGSDDRYVRVWDVCSGTRVRIFSGHKASIIAVKFSPCGRYIVSLDAIGNLMIWDLAYQRLVAAEITEQAGTKGSITFSRDGGVFAVSHGNSSIQLYSLDTLIGTVLAAGQNDSYIEPKVNLDGFNIGSYATKETAVIGLHFTRRNLLLGFGCFGQ | soluble |
| MSWIERIKSNITPTRKASIPEGVWTKCDSCGQVLYRAELERNLEVCPKCDHHMRMTARNRLHSLLDEGSLVELGSELEPKDVLKFRDSKKYKDRLASAQKETGEKDALVVMKGTLYGMPVVAAAFEFAFMGGSMGSVVGARFVRAVEQALEDNCPLICFSASGGARMQEALMSLMQMAKTSAALAKMQERGLPYISVLTDPTMGGVSASFAMLGDLNIAEPKALIGFAGPRVIEQTVREKLPPGFQRSEFLIEKGAIDMIVRRPEMRLKLASILAKLMNLPAPNPEAPREGVVVPPVPDQEPEA | soluble |
| MLAVSSAIVSSAMYILSFPGQASGITKEQVTKHMKKESFKQADIYYTSKEKSLLPLTKETLEYAVSINQIMIGYSNQKPIDIIFFLMKNRWRLTPVYWMLEHHHHHH | not soluble |
| GPGSMSAEAVADLERRAAAAETAIGELSLRLQTMGSSVGAGIEPRLRELLKLMHEDRAEFEAVRAQRDELKEENERLKIQVAKHEYRIKHLLRTIEEISPEENS | soluble |
| MSDTPSTSSVFLPTWPTRRTDANLYPNGSTKSDELVLHDYGLEEIPMRYHIEQPEEDYDPQNVKKLDLTHNSFVILRGLTTFNNVSVLDVSFNSLSALPEDIGTLSSLTTLIARNNLLEHLPKGLQLLENLEHLYLSGNRLEYVPPVILTMRKLKTLHLGGNYIDSCPSNISVLTLLRVLYLGGNRLREIPASIGCLDELENLGLCDNILETIPSTLGDLHYLETLSLHNNRLRTLPTDILNLRRLQQLSLRNNPLVHSFVHNMDLAPPSLKELSGRTVRQNYHKVPNLDEILPSDLVAYLGSACQCVNPECQGVYFDARVEHIKFVDFCGKYRVPLMQFLCSPRCSAGVPSVDYDTSSESEEEIEPIMRRVLLG | not soluble |
| MKKGILIILLVLMVLSCGTSKKVTLPDKDIKIENETVFFKNEKYTGKINLKDKNSVSGFITFKDGHLDGPTELKNDKKQMYTKFNIVNNQFEGETVVKNADQGINMTVNYNNGKIVKLLGDYSKTVKYDITFVDGLANGWFESEGEKFVFSDGVLTLEEDGITTEVKYYVNQETGDMGMEFFINGKSAGRDEKPNKVFGMEYFRIIAISSILEENSKGKDK | not soluble |
| SLVYDSNNNLIADLGAEKRESISSDSIPMKLVNAVTSIEDHRFFKHRGVDIYRIIGAAWSNLLHKSTQGGSTLDQQLIKLAYFSTKESDQTLKRKAQEVWLSLQMEKKYTKEEILTFYVNKVYMGNGNYGMRTAAKSYYGKDLKDLSIAQLATLAGIPQAPTQYDPYAQP | not soluble |
| MMDVSGVGFPSKVPWKKMSAEELENQYCPSRWVVRLGAEEALRTYSQIGIEATTRARATRKSLLHVPYGDGEGEKVDIYFPDESSEALPFFLFFHGGYWQSGSKDESAFMVHPLTAQGVAVVIVAYGIAPKGTLDHMVDQVTRSVAFVQKRYPSNKGIYLCGHSAGAHLAAMMLLADWTKHGVTPNLRGFFLVSGVFDLEPIVYTSQNVALQLTLEDAQRNNPQLKVAQAQPVDPTCRVLVVVGQFDSPEFHRQSWEFYQVLPVQTLCQGEWKASFEELHDVDHFEIVENLTQKDNVLTQIILKTIFQ | soluble |
| MGSDKIHHHHHHMSDYYKTYDLKHVINASGKMTILGVSKVPEVAIQAQQFGDTHFFEIKDLVDKTGAYIAKKLGTEGAVVVNSASAGIAEAVAGIIGQGSKYHAYHPFSPRFTKREIILPKGQNVDYGTPEEVMIELGGGQVVEAGYANMCTPEHIEMMITEQTAAIFYVKSHHAVQKSMLTIPEALEVAHKHDLPLILDAAAEEDLKKYVDLGVDVVLFSGAKAIEGPASGLVFGKEPYIGWTKLQSLGIGRAMKIGKENILGFTTALIHYLDNGPESGDAMKARLHPFVAALNEVPHLNVKEVQDGAGRPIFRAAVTVEATSPNNAKQVTAELKAGDPAIYTREYRANEGIIEFDIRAVDQAEMDLIVTRLKEILA | not soluble |
